Test results as given in the supplement of paper PMC10724198.
± gives the standard deviation of the averaged measurements.

Assays:
Saccharomyces cerevisiae [1] = experiment: protein stability index of tFT-peptide fusion (C-terminal peptide) (PSI (0-1 scale)); higher = more stable (slower turnover)
Procedure: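 MPS profiling in S. cerevisiae of the tFT-X12 degron library: putative degron peptides plus stable controls, 12 aa, fused to the C-terminus of a sfGFP-mCherry timer. Cells are FACS-sorted into 8 mCherry/sfGFP bins and deep-sequenced. PSI runs from 0 (unstable) to 1 (stable). Backgrounds are wild type, das1Δ and doa10Δ at 30 °C, and wild type, das1Δ, cdc34-1 and cdc53-1 at 37 °C; 2-3 technical replicates each.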

Saccharomyces cerevisiae [2] = experiment: as above; settings: genetic background: wild type; temperature: 30 C
[3] = genetic background: cdc34-1, temperature: 37 C
[4] = genetic background: cdc53-1, temperature: 37 C
[5] = genetic background: das1 deletion, temperature: 30 C
[6] = genetic background: das1 deletion, temperature: 37 C
[7] = genetic background: doa10 deletion, temperature: 30 C
[8] = genetic background: wild type, temperature: 30 C
[9] = genetic background: wild type, temperature: 37 C
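Also: PSI is a weighted mean of sequencing reads over stability bins, variants kept only with over 10 reads, mCherry proximal and sfGFP distal, peptide attached via GGGS linker.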

Sequence | protein stability index (Saccharomyces cerevisiae [1]; [3]) | protein stability index (Saccharomyces cerevisiae [1]; [4]) | protein stability index (Saccharomyces cerevisiae [1]; [5]) | protein stability index (Saccharomyces cerevisiae [1]; [6]) | protein stability index (Saccharomyces cerevisiae [1]; [7]) | protein stability index (Saccharomyces cerevisiae [1]; [8]) | protein stability index (Saccharomyces cerevisiae [1]; [9]) | protein stability index (Saccharomyces cerevisiae [2])
KSRLFCFVYFLL | 0.333 ± 0.011 | 0.413 ± 0.013 | 0.311 ± 0.032 | 0.501 ± 0.007 | 0.137 ± 0.0024 | 0.141 ± 0.02 | 0.17 ± 0.0063 | 0.167 ± 0.013
LCSLPIVCCFFL | 0.513 ± 0.015 | 0.552 ± 0.016 | 0.434 ± 0.031 | 0.5703 ± 0.0027 | 0.424 ± 0.016 | 0.427 ± 0.022 | 0.534 ± 0.016 | 0.489 ± 0.029
CFVQVGGLVKIS | 0.66 ± 0.045 | 0.725 ± 0.042 | 0.61 ± 0.012 | 0.731 ± 0.033 | 0.248 ± 0.02 | 0.293 ± 0.036 | 0.57 ± 0.04 | 0.412 ± 0.012
TEHIIAFKASVN | 0.546 ± 0.0031 | 0.7284 ± 0.0037 | 0.626 ± 0.033 | 0.71 ± 0.01 | 0.0901 ± 0.025 | 0.104 ± 0.024 | 0.153 ± 0.028 | 0.214 ± 0.02
CFCSFQFVRLWV | 0.593 ± 0.0065 | 0.6165 ± 0.0048 | 0.49 ± 0.028 | 0.6443 ± 0.0064 | 0.455 ± 0.03 | 0.444 ± 0.011 | 0.58 ± 0.0096 | 0.452 ± 0.062
SGVVWFYIFCLS | 0.4729 ± 0.00067 | 0.535 ± 0.0018 | 0.322 ± 0.038 | 0.57 ± 0.015 | 0.254 ± 0.014 | 0.279 ± 0.043 | 0.494 ± 0.023 | 0.361 ± 0.011
SFVFLVRRWLFV | 0.354 ± 0.071 | 0.582 ± 0.02 | 0.563 ± 0.011 | 0.622 ± 0.023 | 0.136 ± 0.0077 | 0.133 ± 0.017 | 0.159 ± 0.011 | 0.213 ± 0.025
FCSLLVLLFFGV | 0.395 ± 0.042 | 0.4792 ± 0.0038 | 0.334 ± 0.018 | 0.473 ± 0.0052 | 0.323 ± 0.025 | 0.337 ± 0.022 | 0.466 ± 0.013 | 0.39365 ± 4e-05
CHPIPLARLAPT | 0.671 ± 0.032 | 0.745 ± 0.032 | 0.67 ± 0.046 | 0.7433 ± 0.0058 | 0.652 ± 0.026 | 0.666 ± 0.014 | 0.697 ± 0.011 | 0.72 ± 0.013
SVFSFCLCVGVV | 0.285 ± 0.0083 | 0.363 ± 0.076 | 0.266 ± 0.028 | 0.402 ± 0.011 | 0.213 ± 0.014 | 0.253 ± 0.033 | 0.358 ± 0.0064 | 0.294 ± 0.066
ESCIFLMWLTVL | 0.177 ± 0.013 | 0.273 ± 0.024 | 0.222 ± 0.032 | 0.379 ± 0.0044 | 0.0814 ± 0.021 | 0.0868 ± 0.012 | 0.0936 ± 0.013 | 0.136 ± 0.0054
RASLPSLFRSLL | 0.951 ± 0.014 | 0.913 ± 0.048 | 0.804 ± 0.047 | 0.879 ± 0.019 | 0.8152 ± 0.008 | 0.807 ± 0.022 | 0.897 ± 0.011 | 0.811 ± 0.073
GRHRRIRYVKTS | 0.633 ± 0.05 | 0.723 ± 0.0099 | 0.655 ± 0.014 | 0.744 ± 0.028 | 0.146 ± 0.024 | 0.183 ± 0.03 | 0.3527 ± 0.00097 | 0.261 ± 0.087
PVLPPPLLLCPC | 0.0283 ± 0.018 | 0.0268 ± 0.011 | 0.119 ± 0.023 | 0.11 ± 0.024 | 0.0972 ± 0.0096 | 0.15 ± 0.018 | 0.0932 ± 0.032 | 0.22801 ± 2.4e-05
RCTLFVNPVCVH | 0.251 ± 0.018 | 0.304 ± 0.008 | 0.242 ± 0.034 | 0.402 ± 0.025 | 0.197 ± 0.011 | 0.241 ± 0.015 | 0.345 ± 0.017 | 0.349 ± 0.014
VCVAVCFVMCGG | 0.36 ± 0.022 | 0.457 ± 0.023 | 0.324 ± 0.023 | 0.499 ± 0.018 | 0.276 ± 0.0083 | 0.305 ± 0.0087 | 0.464 ± 0.03 | 0.3721 ± 0.0011
FVWVVRMLVFVP | 0.178 ± 0.0058 | 0.2493 ± 0.00099 | 0.187 ± 0.025 | 0.383 ± 0.023 | 0.165 ± 0.008 | 0.16 ± 0.025 | 0.3 ± 0.0077 | 0.276 ± 0.017
VFFSLSLILFPF | 0.431 ± 0.037 | 0.5265 ± 0.0017 | 0.412 ± 0.022 | 0.525 ± 0.024 | 0.3557 ± 0.00081 | 0.402 ± 0.019 | 0.4897 ± 0.0017 | 0.419 ± 0.013
GLLLLGIRLKWG | 0.139 ± 0.029 | 0.274 ± 0.037 | 0.208 ± 0.015 | 0.363 ± 0.026 | 0.157 ± 0.014 | 0.206 ± 0.013 | 0.328 ± 0.02 | 0.269 ± 0.011
LRVVVGLCMCVL | 0.4743 ± 0.00078 | 0.503 ± 0.007 | 0.396 ± 0.024 | 0.516 ± 0.0088 | 0.385 ± 0.014 | 0.395 ± 0.019 | 0.4884 ± 0.0035 | 0.453 ± 0.015
FSLLTWPFVFLV | 0.126 ± 0.021 | 0.0782 ± 0.0059 | 0.252 ± 0.041 | 0.346 ± 0.037 | 0.0816 ± 0.015 | 0.0575 ± 0.0078 | 0.0613 ± 0.011 | 0.08711 ± 0.00051
HRFCAPSLSASD | 0.675 ± 0.007 | 0.722 ± 0.013 | 0.6628 ± 0.0047 | 0.7288 ± 0.0054 | 0.665 ± 0.024 | 0.666 ± 0.012 | 0.696 ± 0.0086 | 0.697 ± 0.062
RLPRILVLVCLF | 0.231 ± 0.0089 | 0.318 ± 0.025 | 0.228 ± 0.04 | 0.383 ± 0.00011 | 0.169 ± 0.0018 | 0.163 ± 0.022 | 0.25 ± 0.0094 | 0.237 ± 0.017
RGKVVRGLLFCA | 0.619 ± 0.058 | 0.7188 ± 0.0062 | 0.624 ± 0.031 | 0.7327 ± 0.0057 | 0.137 ± 0.012 | 0.151 ± 0.0035 | 0.318 ± 0.077 | 0.3 ± 0.12
LRKARLFLKAKC | 0.645 ± 0.031 | 0.678 ± 0.041 | 0.497 ± 0.032 | 0.705 ± 0.0046 | 0.17 ± 0.022 | 0.219 ± 0.017 | 0.384 ± 0.0047 | 0.323 ± 0.03
SRLMLPLSPLVC | 0.41 ± 0.011 | 0.455 ± 0.0065 | 0.301 ± 0.045 | 0.5021 ± 0.0044 | 0.2762 ± 0.0016 | 0.313 ± 0.016 | 0.465 ± 0.0065 | 0.379 ± 0.045
LLVRYRRALVLL | 0.338 ± 0.0093 | 0.412 ± 0.018 | 0.425 ± 0.025 | 0.53 ± 0.023 | 0.0924 ± 0.015 | 0.0953 ± 0.036 | 0.131 ± 0.033 | 0.142 ± 0.051
LLTGRFRILLVV | 0.0537 ± 0.0092 | 0.0715 ± 0.0019 | 0.176 ± 0.019 | 0.276 ± 0.004 | 0.0579 ± 0.017 | 0.0444 ± 0.0073 | 0.0674 ± 0.026 | 0.0704 ± 0.021
ILRAGITYVYAV | 0.515 ± 0.014 | 0.544 ± 0.036 | 0.325 ± 0.038 | 0.5463 ± 0.0033 | 0.264 ± 0.0082 | 0.296 ± 0.016 | 0.493 ± 0.013 | 0.399 ± 0.04
LLSPFLLMLLFL | 0.4001 ± 0.0019 | 0.395 ± 0.0071 | 0.344 ± 0.007 | 0.432 ± 0.0046 | 0.221 ± 0.01 | 0.2 ± 0.02 | 0.317 ± 0.013 | 0.28 ± 0.004
